Source: patent US20040171116A1
Each block holds one molecule with its values, some of them ahead of it.

Tests used:
[1] = molecular target: mutated rMal d 1 (2781) (apple) (UniProt Q40280); test: Biacore SPR, BV16 on the chip, antigen injected at 5 concentrations
[2] = molecular target: rBet v 1.2801 (database accession number: Z80104) (birch); test: as above
[3] = molecular target: receptor-bound IgE on basophils of birch pollen allergic patients; test: cell-based or functional assay
[4] = molecular target: pooled IgE serum from birch allergic patients (FIG. 8A); test: solid phase IgE inhibition assay (ADVIA Centaur), inhibitor at 3000 ng/test, competitor biotinylated rBet v 1.2801
[5] = molecular target: pooled IgE serum from birch allergic patients (FIG. 8A); test: solid phase IgE inhibition assay (ADVIA Centaur), reference rBet v 1.2801

shift of the histamine release curve toward higher antigen concentrations compared to rBet v 1.2801 [3]: 20 fold
B1: mutated rMal d 1 (2762), Q40280 2-159 (protein)
chain: GVYTYENEYTSVIPPARLFKAFVLDADNLIPKIAPQAIKHAEILEGDGGPGTIKKITFGEGSQYGYVKHKIDSVDEANYSYAYTLIEGDALTDTIEKVSYETKLVATPDGGSIIKSISHYHTKGDVEIMEEHVKAGKEKAHGLFKLIESYLLDHSDAYN

shift of the histamine release curve toward higher antigen concentrations compared to rBet v 1.2801 [3]: 2 fold
B3: mutated rMal d 1 (2781), Q40280 2-159 (protein)
chain: GVYTYENEYTSEIPPPRLFKAFVLDADNLIPKIAPQAIKHAENIEGNGGPGTIKKITFGEGSQYKYVKHRIDSVDHANYSYAYTLIEGDALTDTIEKVSYETKLVASGSGSIIKSISHYHTKGDVEIMEEHVKAGKEKAHGLFKLIESYLKDHPDAYN

percent inhibition of binding of serum-IgE to biotinylated rBet v 1.2801 [4]: 39%
fold higher antigen concentration than rBet v 1.2801 to reach the same IgE inhibition (39%) [5]: 1000 fold
B4: mutated rMal d 1 (2781) (protein)
chain: GVYTYENEYTSEIPPPRLFKAFVLDADNLIPKIAPQAIKHAENIEGNGGPGTIKKITFGEGSQYKYVKHRIDSVDHANYSYAYTLIEGDALTDTIEKVSYETKLVASGSGSIIKSISHYHTKGDVEIMEEHVKAGKEKAHGLFKLIESYLKDHPDAYN

Second part, the molecule before the results:

Molecule: monoclonal mouse IgG antibody BV16 raised against nBet v 1
Kd [1]: 0.27 nM
kon [1]: 120000 M⁻¹ s⁻¹
Kd [2]: 0.24 nM
koff [2]: 2.5e-05 s⁻¹
kon [2]: 100000 M⁻¹ s⁻¹

B2: mutated rMal d 1 (2762) (protein)
chain: GVYTYENEYTSVIPPARLFKAFVLDADNLIPKIAPQAIKHAEILEGDGGPGTIKKITFGEGSQYGYVKHKIDSVDEANYSYAYTLIEGDALTDTIEKVSYETKLVATPDGGSIIKSISHYHTKGDVEIMEEHVKAGKEKAHGLFKLIESYLLDHSDAYN
percent inhibition of binding of serum-IgE to biotinylated rBet v 1.2801 [4]: 62%
fold higher antigen concentration than rBet v 1.2801 to reach the same IgE inhibition (62%) [5]: 500 fold

B5: mutated rMal d 1 (2760), Q40280 2-159 (protein)
chain: GVYTYENEYTSEIPPPRLFKAFVLDADTLIPQIAPQAIKHAEILSGDGGPGTIKKITFGEGSQYGYVKHKIDSVDEANYSYAYTLIEGDALTDTIEKVSYETKLVASGSGSIIKSISHYHTKGDVEIMEEHVKAGKEKAHGLFKLIESYLKDHPDAYN
concentration required to trigger histamine release in patient (p) compared to rBet v 1.2801 [3]: 100 fold
